Test results taken from patent US20030170203A1 (Human Genome Sciences, published 2003).

Assays:
Experiment in all cases: flow cytometry on transiently transfected cells
[1] = target: T1, 4-1BB on transiently transfected cells (UniProt Q07011 24-255, limits assumed)
T1 construct: whole, on cells
Description: (§1) One million cells, in 0.1 ml of FACS buffer (PBS, 0.1% BSA, 0.1% NaN₃), were incubated with 0.1-1 microgram of protein or antibody at RT for 15 min. The cells were washed with 3 ml of FACS buffer, reacted with biotinylated primary antibody, and stained with PE-conjugated secondary antibody at RT for 15 min. Cells were then washed again, resuspended in 0.5 microgram/ml of propidium iodide, and live cells were gated and analyzed on a FACScan using the CellQuest software (BD Biosciences).

[2] = target: T2, CD30 on transiently transfected cells (UniProt P28908 19-595, limits assumed)
T2 construct: whole, on cells
T2 sequence (looked up): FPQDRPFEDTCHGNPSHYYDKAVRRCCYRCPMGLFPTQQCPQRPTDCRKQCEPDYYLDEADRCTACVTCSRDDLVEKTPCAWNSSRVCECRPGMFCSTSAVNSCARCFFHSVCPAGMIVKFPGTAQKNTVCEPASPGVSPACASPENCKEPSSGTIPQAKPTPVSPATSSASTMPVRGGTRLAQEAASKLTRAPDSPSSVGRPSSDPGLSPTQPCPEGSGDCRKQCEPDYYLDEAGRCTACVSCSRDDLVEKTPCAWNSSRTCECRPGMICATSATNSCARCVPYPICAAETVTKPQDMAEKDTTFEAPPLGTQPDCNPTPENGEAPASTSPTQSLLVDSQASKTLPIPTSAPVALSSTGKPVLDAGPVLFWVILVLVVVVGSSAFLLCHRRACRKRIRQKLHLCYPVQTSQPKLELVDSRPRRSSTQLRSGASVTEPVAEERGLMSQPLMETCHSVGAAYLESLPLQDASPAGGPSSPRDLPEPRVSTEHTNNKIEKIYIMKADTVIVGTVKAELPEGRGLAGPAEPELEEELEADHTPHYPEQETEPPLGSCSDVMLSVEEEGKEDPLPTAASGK
Description: as §1

[3] = target: T3, BCMA on transiently transfected cells (UniProt Q02223 1-184, limits assumed)
T3 construct: whole, on cells
T3 sequence (looked up): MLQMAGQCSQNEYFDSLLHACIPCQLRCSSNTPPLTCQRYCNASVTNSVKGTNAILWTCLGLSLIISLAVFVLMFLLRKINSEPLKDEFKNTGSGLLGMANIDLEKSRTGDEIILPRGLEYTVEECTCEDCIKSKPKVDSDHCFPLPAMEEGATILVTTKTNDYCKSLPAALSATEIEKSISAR
Description: as §1

[4] = target: T4, DR5 on transiently transfected cells (UniProt O14763 56-440, limits assumed)
T4 construct: whole, on cells
Description: as §1

[5] = target: T5, DcR1 on transiently transfected cells (UniProt O14798 26-236, limits assumed)
T5 construct: whole, on cells
T5 sequence (looked up): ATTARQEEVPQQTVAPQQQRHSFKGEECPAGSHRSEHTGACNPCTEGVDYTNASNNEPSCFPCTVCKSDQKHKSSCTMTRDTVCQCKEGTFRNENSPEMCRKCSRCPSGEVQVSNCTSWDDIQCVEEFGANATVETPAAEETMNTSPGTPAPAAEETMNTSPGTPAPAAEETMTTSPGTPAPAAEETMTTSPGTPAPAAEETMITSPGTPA
Description: as §1

[6] = target: T6, DcR2 on transiently transfected cells (UniProt Q9UBN6 56-386, limits assumed)
T6 construct: whole, on cells
T6 sequence (looked up): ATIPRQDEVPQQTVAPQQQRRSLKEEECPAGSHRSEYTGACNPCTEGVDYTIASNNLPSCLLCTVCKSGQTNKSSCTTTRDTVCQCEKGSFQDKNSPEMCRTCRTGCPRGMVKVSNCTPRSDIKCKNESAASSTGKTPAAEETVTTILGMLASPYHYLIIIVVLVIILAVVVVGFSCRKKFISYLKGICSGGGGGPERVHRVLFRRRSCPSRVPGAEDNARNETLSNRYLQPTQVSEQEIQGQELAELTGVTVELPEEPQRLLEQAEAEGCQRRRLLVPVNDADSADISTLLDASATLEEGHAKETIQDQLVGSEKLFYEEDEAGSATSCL
Description: as §1

[7] = target: T7, RANK on transiently transfected cells (UniProt Q9Y6Q6 30-616, limits assumed)
T7 construct: whole, on cells
T7 sequence (looked up): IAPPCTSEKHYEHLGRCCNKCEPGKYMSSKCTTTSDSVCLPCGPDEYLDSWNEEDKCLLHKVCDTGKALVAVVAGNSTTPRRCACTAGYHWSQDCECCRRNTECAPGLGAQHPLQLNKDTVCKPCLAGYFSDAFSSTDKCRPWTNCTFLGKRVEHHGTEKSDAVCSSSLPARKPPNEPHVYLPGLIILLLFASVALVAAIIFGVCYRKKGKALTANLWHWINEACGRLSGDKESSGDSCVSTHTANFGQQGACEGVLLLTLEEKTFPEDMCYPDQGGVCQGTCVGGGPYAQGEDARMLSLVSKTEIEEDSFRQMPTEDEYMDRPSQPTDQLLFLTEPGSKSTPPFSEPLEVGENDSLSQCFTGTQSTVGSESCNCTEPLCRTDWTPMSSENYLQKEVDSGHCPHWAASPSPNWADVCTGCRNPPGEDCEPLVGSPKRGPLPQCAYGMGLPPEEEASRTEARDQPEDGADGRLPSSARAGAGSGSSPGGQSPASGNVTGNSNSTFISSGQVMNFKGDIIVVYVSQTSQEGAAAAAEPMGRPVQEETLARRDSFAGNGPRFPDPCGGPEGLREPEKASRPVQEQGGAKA
Description: as §1

[8] = target: T8, AITR on transiently transfected cells (UniProt Q9Y5U5 26-241, limits assumed)
T8 construct: whole, on cells
T8 sequence (looked up): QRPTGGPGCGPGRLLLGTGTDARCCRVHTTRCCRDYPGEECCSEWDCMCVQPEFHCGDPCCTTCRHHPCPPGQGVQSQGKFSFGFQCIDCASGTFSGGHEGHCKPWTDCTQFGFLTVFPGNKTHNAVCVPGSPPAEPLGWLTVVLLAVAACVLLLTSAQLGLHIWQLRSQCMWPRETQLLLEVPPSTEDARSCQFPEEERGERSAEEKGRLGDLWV
Description: as §1

Measured: binding result

T1 sequence (Q07011 24-255 limits assumed): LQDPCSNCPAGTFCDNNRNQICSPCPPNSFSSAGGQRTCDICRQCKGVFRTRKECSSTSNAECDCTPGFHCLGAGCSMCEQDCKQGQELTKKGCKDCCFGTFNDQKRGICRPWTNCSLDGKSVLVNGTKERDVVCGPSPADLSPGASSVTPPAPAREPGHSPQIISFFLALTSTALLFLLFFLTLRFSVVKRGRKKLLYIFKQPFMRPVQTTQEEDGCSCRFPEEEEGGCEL

B1: FLAG-tagged soluble form of TNF-gamma-beta (aa 72-251) (ligand, human, UniProt O95150 72-251, looked up)
chain: LKGQEFAPSHQQVYAPLRADGDKPRAHLTVVRQTPTQHFKNQFPALHWEHELGLAFTKNRMNYTNKFLLIPESGDYFIYSQVTFRGMTSECSEIRQAGRPNKPDSITVVITKVTDSYPEPTQLLMGTKSVCEVGSNWFQPIYLGAMFSLQEGDKLMVNVSDISLVDYTKEDKTFFGAFLL
notes: also called FLAG-TL1β; FLAG-TNF-gamma-beta; not shown: FLAG tag of vector pFLAGCMV1
no binding: all assays above
